# Laboratory results as given in paper PMC5501646.
# Experiments:
# [1] = system: HfqPae (wild type) (Pseudomonas aeruginosa PAO1); assay: MST; settings: 1 mM Mg2+, 25 C, MST: 10 mM Tris pH 8.0, 40 mM NaCl, 10 mM KCl, 1 mM MgCl2, 0.05% Tween, EMSA: 10 mM Tris-HCl pH 8.0, 10 mM MgCl2, 60 mM NaCl, 10 mM NaH2PO4, 10 mM DTT …
# [2] = molecular target: HfqPae (wild type) (Pseudomonas aeruginosa PAO1) (UniProt Q9HUM0); assay: MST; settings: MST: 10 mM Tris pH 8.0, 40 mM NaCl, 10 mM KCl, 1 mM MgCl2, 0.05% Tween, 25 C; EMSA: 10 mM Tris-HCl pH 8.0, 10 mM MgCl2, 60 mM NaCl, 10 mM NaH2PO4, 10 mM DTT …
# [3] = molecular target: HfqPaeY25DFlag Y25D (Pseudomonas aeruginosa PAO1) (UniProt Q9HUM0); assay: EMSA; settings: MST: 10 mM Tris pH 8.0, 40 mM NaCl, 10 mM KCl, 1 mM MgCl2, 0.05% Tween, 25 C; EMSA: 10 mM Tris-HCl pH 8.0, 10 mM MgCl2, 60 mM NaCl, 10 mM NaH2PO4, 10 mM DTT …
# [4] = molecular target: HfqPae (wild type) (Pseudomonas aeruginosa PAO1) (UniProt Q9HUM0); assay: EMSA; settings: MST: 10 mM Tris pH 8.0, 40 mM NaCl, 10 mM KCl, 1 mM MgCl2, 0.05% Tween, 25 C; EMSA: 10 mM Tris-HCl pH 8.0, 10 mM MgCl2, 60 mM NaCl, 10 mM NaH2PO4, 10 mM DTT …
substance,measurement,setting,value
antR(-95-+67) mRNA fragment,Kd,[1]; 20 nM labelled Hfq,37.3 nM
GGGAGCCGGCCUUGCGCCGGCAUAUGCCUUGCAUUUUGCUGAAAACAGAGCGCCAGCAGAGCGCACCCCCAGCCUUGCCGUGUCGAGUGCCGAACCAUGAUGAGGACCCAUCCCGUCGCCGAUCGUGGCGAUCUCCAUGCCGACCACCUGGACCUGGCCGCCG [antR(-95-+67) mRNA fragment],Kd,[2],37.3 nM
same,binding,[3],no binding
GGACUGGUCGCGAGGCCAGCAGGUAAGCUGAGAGACCAAGCAGUCGGACUCUUCAGAUUAUCUCCUCAUCAGGCUAAUCACGGUUUCGACCCGGCACUUUGCCGGGUCUUUUUUUG [PrrF2 sRNA],binding,[4],binds
CrcZ RNA,Kd,[1]; 30 nM labelled Hfq,7.4 nM
